{"source": "patent US20160264649A1", "assay_in_all_cases": "cell-based or functional assay", "key": {"[1]": {"biological_target": "HIV-1 MGRM-G-019 Env (HIV-1)"}, "[2]": {"biological_target": "HIV-1 MGRM-F1-021 Env (HIV-1)"}, "[3]": {"biological_target": "HIV-1 JRCSF Env on pseudovirus (HIV-1) (UniProt P20871)"}, "[4]": {"biological_target": "HIV-1 MGRM-F1-016 Env (HIV-1)"}, "[5]": {"biological_target": "HIV-1 MGRM-C-002 Env on pseudovirus (HIV-1)"}, "[6]": {"biological_target": "HIV-1 MGRM-D-005 Env (HIV-1)"}, "[7]": {"biological_target": "HIV-1 MGRM-G-016 Env (HIV-1)"}, "[8]": {"biological_target": "HIV-1 MGRM-D-012 Env (HIV-1)"}, "[9]": {"biological_target": "HIV-1 MGRM-F1-008 Env (HIV-1)"}, "[10]": {"biological_target": "HIV-1 APV_6 Env on pseudovirus (HIV-1)"}, "[11]": {"biological_target": "HIV-1 APV_17 Env on pseudovirus (HIV-1)"}, "[12]": {"biological_target": "HIV-1 MGRM-C-022 Env on pseudovirus (HIV-1)"}, "[13]": {"biological_target": "HIV-1 MGRM-G-027 Env (HIV-1)"}, "[14]": {"biological_target": "HIV-1 MGRM-AG-002 Env (HIV-1)"}, "[15]": {"biological_target": "HIV-1 MGRM-AG-008 Env (HIV-1)"}, "[16]": {"biological_target": "HIV-1 93IN905 Env (HIV-1)"}, "[17]": {"biological_target": "HIV-1 MGRM-D-024 Env (HIV-1)"}, "[18]": {"biological_target": "HIV-1 97ZA012 Env on pseudovirus (HIV-1)"}, "[19]": {"biological_target": "HIV-1 MGRM-Chronic-B-010 Env on pseudovirus (HIV-1)"}, "[20]": {"biological_target": "HIV-1 MGRM-AG-003 Env (HIV-1)"}, "[21]": {"biological_target": "HIV-1 CAAN.A2 (Acute) Env on pseudovirus (HIV-1)"}, "[22]": {"biological_target": "HIV-1 MGRM-C-024 Env on pseudovirus (HIV-1)"}, "[23]": {"biological_target": "HIV-1 MGRM-AE-003 Env (HIV-1)"}, "[24]": {"biological_target": "HIV-1 MGRM-F1-014 Env (HIV-1)"}, "[25]": {"biological_target": "HIV-1 MGRM-G-024 Env (HIV-1)"}, "[26]": {"biological_target": "HIV-1 TRO.11 (Acute) Env on pseudovirus (HIV-1)"}, "[27]": {"biological_target": "HIV-1 MGRM-F1-018 Env (HIV-1)"}, "[28]": {"biological_target": "HIV-1 MGRM-D-001 Env (HIV-1)"}, "[29]": {"biological_target": "HIV-1 92BR020 Env (HIV-1)"}, "[30]": {"biological_target": "HIV-1 MGRM-G-001 Env (HIV-1)"}, "[31]": {"biological_target": "HIV-1 98IN022 Env on pseudovirus (HIV-1)"}, "[32]": {"biological_target": "HIV-1 SF162 Env on pseudovirus (HIV-1) (UniProt P19550)"}, "[33]": {"biological_target": "HIV-1 MGRM-F1-012 Env (HIV-1)"}, "[34]": {"biological_target": "HIV-1 LAVIC_18 Env on pseudovirus (HIV-1)"}, "[35]": {"biological_target": "HIV-1 MGRM-AG-012 Env (HIV-1)"}, "[36]": {"biological_target": "HIV-1 MGRM-Chronic-B-001 Env on pseudovirus (HIV-1)"}, "[37]": {"biological_target": "HIV-1 MGRM-Chronic-B-020 Env on pseudovirus (HIV-1)"}, "[38]": {"biological_target": "HIV-1 MGRM-AG-011 Env (HIV-1)"}, "[39]": {"biological_target": "HIV-1 93UG077 Env (HIV-1)"}, "[40]": {"biological_target": "HIV-1 MGRM-F1-020 Env (HIV-1)"}, "[41]": {"biological_target": "HIV-1 MGRM-G-015 Env (HIV-1)"}, "[42]": {"biological_target": "HIV-1 MGRM-AE-007 Env (HIV-1)"}, "[43]": {"biological_target": "HIV-1 IAVI-C22 Env (HIV-1)"}, "HIV-1 JRCSF Env (HIV-1)": {"biological_target": "HIV-1 JRCSF Env (HIV-1) (UniProt P20871)"}, "[44]": {"biological_target": "HIV-1 92TH021 Env (HIV-1)"}, "[45]": {"biological_target": "HIV-1 MGRM-AE-005 Env (HIV-1)"}, "[46]": {"biological_target": "HIV-1 MGRM-D-016 Env (HIV-1)"}, "[47]": {"biological_target": "HIV-1 MGRM-D-029 Env (HIV-1)"}, "[48]": {"biological_target": "HIV-1 MGRM-G-013 Env (HIV-1)"}, "[49]": {"biological_target": "HIV-1 QH0692.42 (Acute) Env on pseudovirus (HIV-1)"}, "[50]": {"biological_target": "HIV-1 98CN009 Env on pseudovirus (HIV-1)"}}}
{"substance": "2F5 (antibody)", "values": [{"measurement": "IC50 (µg/ml), pseudovirus neutralization", "setting": "[1]", "result": "> 50", "unit": "µg/mL"}, {"measurement": "IC50 (pseudovirus neutralization)", "setting": "[2]", "result": 1.37, "unit": "µg/mL"}, {"measurement": "IC50", "setting": "[3]", "result": 1.85, "unit": "µg/mL"}, {"measurement": "IC50 (pseudovirus neutralization)", "setting": "[4]", "result": 21.5, "unit": "µg/mL"}, {"measurement": "IC50", "setting": "[5]", "result": 44.7, "unit": "µg/mL"}, {"measurement": "IC50 (µg/ml), pseudovirus neutralization", "setting": "[6]", "result": "> 50", "unit": "µg/mL"}, {"measurement": "IC50 (µg/ml), pseudovirus neutralization", "setting": "[7]", "result": 16.8, "unit": "µg/mL"}, {"measurement": "IC50 (µg/ml), pseudovirus neutralization", "setting": "[8]", "result": 1.7, "unit": "µg/mL"}, {"measurement": "IC50 (pseudovirus neutralization)", "setting": "[9]", "result": 1.61, "unit": "µg/mL"}, {"measurement": "IC50", "setting": "[10]", "result": 0.25, "unit": "µg/mL"}, {"measurement": "IC50", "setting": "[11]", "result": 4.61, "unit": "µg/mL"}, {"measurement": "IC50", "setting": "[12]", "result": "> 50", "unit": "µg/mL"}, {"measurement": "IC50 (µg/ml), pseudovirus neutralization", "setting": "[13]", "result": 0.28, "unit": "µg/mL"}, {"measurement": "IC50 (µg/ml), pseudovirus neutralization", "setting": "[14]", "result": 0.54, "unit": "µg/mL"}, {"measurement": "IC50 (µg/ml), pseudovirus neutralization", "setting": "[15]", "result": 0.54, "unit": "µg/mL"}, {"measurement": "neutralization IC50", "setting": "[16]", "result": "> 50", "unit": "µg/mL"}, {"measurement": "neutralization IC90", "setting": "[16]", "result": "> 50", "unit": "µg/mL"}, {"measurement": "IC50 (µg/ml), pseudovirus neutralization", "setting": "[17]", "result": "> 50", "unit": "µg/mL"}, {"measurement": "IC50", "setting": "[18]", "result": "> 50", "unit": "µg/mL"}, {"measurement": "IC50", "setting": "[19]", "result": 0.96, "unit": "µg/mL"}, {"measurement": "IC50 (µg/ml), pseudovirus neutralization", "setting": "[20]", "result": 0.14, "unit": "µg/mL"}, {"measurement": "IC50", "setting": "[21]", "result": 23.1, "unit": "µg/mL"}, {"measurement": "IC50", "setting": "[22]", "result": "> 50", "unit": "µg/mL"}, {"measurement": "IC50 (µg/ml), pseudovirus neutralization", "setting": "[23]", "result": 0.24, "unit": "µg/mL"}, {"measurement": "IC50 (pseudovirus neutralization)", "setting": "[24]", "result": 15.1, "unit": "µg/mL"}, {"measurement": "IC50 (µg/ml), pseudovirus neutralization", "setting": "[25]", "result": 1.07, "unit": "µg/mL"}, {"measurement": "IC50", "setting": "[26]", "result": "> 50", "unit": "µg/mL"}, {"measurement": "IC50 (pseudovirus neutralization)", "setting": "[27]", "result": 3.91, "unit": "µg/mL"}, {"measurement": "IC50 (µg/ml), pseudovirus neutralization", "setting": "[28]", "result": 0.63, "unit": "µg/mL"}, {"measurement": "neutralization IC50", "setting": "[29]", "result": "> 50", "unit": "µg/mL"}, {"measurement": "neutralization IC90", "setting": "[29]", "result": "> 50", "unit": "µg/mL"}, {"measurement": "IC50 (µg/ml), pseudovirus neutralization", "setting": "[30]", "result": 4.1, "unit": "µg/mL"}, {"measurement": "IC50", "setting": "[31]", "result": "> 50", "unit": "µg/mL"}, {"measurement": "IC50", "setting": "[32]", "result": 2.52, "unit": "µg/mL"}, {"measurement": "IC50 (pseudovirus neutralization)", "setting": "[33]", "result": "> 50", "unit": "µg/mL"}, {"measurement": "IC50", "setting": "[34]", "result": "> 50", "unit": "µg/mL"}, {"measurement": "IC50 (µg/ml), pseudovirus neutralization", "setting": "[35]", "result": 0.33, "unit": "µg/mL"}, {"measurement": "IC50", "setting": "[36]", "result": 0.55, "unit": "µg/mL"}, {"measurement": "IC50", "setting": "[37]", "result": 0.78, "unit": "µg/mL"}, {"measurement": "IC50 (µg/ml), pseudovirus neutralization", "setting": "[38]", "result": "> 50", "unit": "µg/mL"}, {"measurement": "neutralization IC50", "setting": "[39]", "result": 4.45, "unit": "µg/mL"}, {"measurement": "neutralization IC90", "setting": "[39]", "result": 33.4, "unit": "µg/mL"}, {"measurement": "IC50 (pseudovirus neutralization)", "setting": "[40]", "result": 0.59, "unit": "µg/mL"}, {"measurement": "IC50 (µg/ml), pseudovirus neutralization", "setting": "[41]", "result": 0.43, "unit": "µg/mL"}, {"measurement": "IC50 (µg/ml), pseudovirus neutralization", "setting": "[42]", "result": 0.07, "unit": "µg/mL"}, {"measurement": "neutralization IC50", "setting": "[43]", "result": "> 50", "unit": "µg/mL"}, {"measurement": "neutralization IC90", "setting": "[43]", "result": "> 50", "unit": "µg/mL"}, {"measurement": "neutralization IC50", "setting": "HIV-1 JRCSF Env (HIV-1)", "result": 3.36, "unit": "µg/mL"}, {"measurement": "neutralization IC90", "setting": "HIV-1 JRCSF Env (HIV-1)", "result": 25.3, "unit": "µg/mL"}, {"measurement": "neutralization IC50", "setting": "[44]", "result": 1.51, "unit": "µg/mL"}, {"measurement": "neutralization IC90", "setting": "[44]", "result": 18.8, "unit": "µg/mL"}, {"measurement": "IC50 (µg/ml), pseudovirus neutralization", "setting": "[45]", "result": 0.14, "unit": "µg/mL"}, {"measurement": "IC50 (µg/ml), pseudovirus neutralization", "setting": "[46]", "result": 9.85, "unit": "µg/mL"}, {"measurement": "IC50 (µg/ml), pseudovirus neutralization", "setting": "[47]", "result": "> 50", "unit": "µg/mL"}, {"measurement": "IC50 (µg/ml), pseudovirus neutralization", "setting": "[48]", "result": 0.59, "unit": "µg/mL"}, {"measurement": "IC50", "setting": "[49]", "result": 5.42, "unit": "µg/mL"}, {"measurement": "IC50", "setting": "[50]", "result": "> 50", "unit": "µg/mL"}]}
